Data: the supplement of paper PMC6755084

B1: F1*; the commonest letter at each place (parent)
chain: GAGACCGCAACTGAAAAGTTGTTATCACTTGTCGTAAGACACTTTGGATGGGTTGAAGTTCTGCACGTAGAAGCAAAAGGC

Variants of: B1
Test: fraction ligated after 30 min (ligated reads / total reads); higher = more ligase activity
Details: with F1*sub RNA substrate (template-directed ligation), 42 °C
Procedure: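 Chip-synthesised pool of F1* ligase ribozyme variants (all single and double substitutions, single, double and triple deletions in the catalytic core and GAA bulge, plus designed variants) was transcribed with T7 and reacted as a pool with excess substrate F1*sub for 30 min at 42 C in 50 mM EPPS pH 8.5, 25 mM MgCl2. Ligated and unligated bands were separated by PAGE, barcoded by RT and deep sequenced; fraction ligated = ligated reads / total reads per variant, relative activity = FL / FL of wild type (0.826). Sequences are the DNA template of the ribozyme.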
For A27C G46C, the fraction ligated was 0.782.
Variant A27C G46A has a fraction ligated of 0.82.
Work on A27C G46T yielded a fraction ligated of 0.78.
A27T A36T was tested, and the fraction ligated was 0.798.
A27T A36G was tested, and the fraction ligated was 0.862.
Variant A27T A36C has a fraction ligated of 0.868.
Variant A27C A36T has a fraction ligated of 0.817.
A27C A36G gave a fraction ligated of 0.821.
Work on A27C A36C yielded a fraction ligated of 0.793.
In the case of A27G A39G, the fraction ligated is reported as 0.799.
A27G A39C gave a fraction ligated of 0.8.
A27G A39T was tested, and the fraction ligated was 0.814.
Work on A27C A48C yielded a fraction ligated of 0.748.
A27C A48G was tested, and the fraction ligated was 0.256.
In the case of A27C A48T, the fraction ligated is reported as 0.78.
A27G A37G gave a fraction ligated of 0.848.
Variant A27G A37T has a fraction ligated of 0.81.
In the case of A27G A37C, the fraction ligated is reported as 0.817.
A27C T49A was tested, and the fraction ligated was 0.701.
Work on A27C T49C yielded a fraction ligated of 0.519.
A27C T49G showed a fraction ligated of 0.733.
A27G A57T was tested, and the fraction ligated was 0.81.
A27G A57G gave a fraction ligated of 0.819.
A27G A57C was tested, and the fraction ligated was 0.777.
A27C T35C was tested, and the fraction ligated was 0.813.
A27C T35G was tested, and the fraction ligated was 0.82.
A27C T35A showed a fraction ligated of 0.835.
A27C A37T gave a fraction ligated of 0.82.
A27C A37G was tested, and the fraction ligated was 0.817.
Variant A27C A37C has a fraction ligated of 0.793.
A27C A39C gave a fraction ligated of 0.785.
Work on A27C A39T yielded a fraction ligated of 0.789.
Variant A27C A39G has a fraction ligated of 0.809.
Variant A27G T29G has a fraction ligated of 0.806.
Work on A27G T29A yielded a fraction ligated of 0.829.
With A27G T29C the fraction ligated was 0.788.
A27C C28G showed a fraction ligated of 0.807.
A27C C28T gave a fraction ligated of 0.819.
With A27C C28A the fraction ligated was 0.807.
A27G G38A gave a fraction ligated of 0.83.
Work on A27G G38T yielded a fraction ligated of 0.824.
For A27G G38C, the fraction ligated was 0.798.
With A27G C42G the fraction ligated was 0.812.
For A27G C42A, the fraction ligated was 0.827.
With A27G C42T the fraction ligated was 0.817.
A27G A48C gave a fraction ligated of 0.504.
A27G A48G gave a fraction ligated of 0.788.
Variant A27G A48T has a fraction ligated of 0.195.
A27C A56G showed a fraction ligated of 0.742.
A27C A56C was tested, and the fraction ligated was 0.75.
Variant A27C A56T has a fraction ligated of 0.787.
Variant A27C T32C has a fraction ligated of 0.754.
For A27C T32A, the fraction ligated was 0.799.
Variant A27C T32G has a fraction ligated of 0.78.
In the case of A27G C40G, the fraction ligated is reported as 0.813.
A27G C40A gave a fraction ligated of 0.79.
A27G C40T gave a fraction ligated of 0.817.
Variant A27G has a fraction ligated of 0.852.
Work on A27T yielded a fraction ligated of 0.8.
A27C gave a fraction ligated of 0.81.
For A27G G55A, the fraction ligated was 0.801.
With A27G G55T the fraction ligated was 0.79.
A27G G55C showed a fraction ligated of 0.554.
A27G T49C gave a fraction ligated of 0.601.
For A27G T49G, the fraction ligated was 0.774.
A27G T49A was tested, and the fraction ligated was 0.721.
In the case of A27C G47T, the fraction ligated is reported as 0.126.
A27C G47A showed a fraction ligated of 0.799.
Work on A27C G47C yielded a fraction ligated of 0.158.
Work on A27C T29C yielded a fraction ligated of 0.802.
A27C T29A was tested, and the fraction ligated was 0.818.
A27C T29G was tested, and the fraction ligated was 0.797.
With A27G G47T the fraction ligated was 0.329.
In the case of A27G G47C, the fraction ligated is reported as 0.583.
For A27G G47A, the fraction ligated was 0.805.
For A27C A41C, the fraction ligated was 0.782.
With A27C A41T the fraction ligated was 0.785.
A27C A41G was tested, and the fraction ligated was 0.781.
Work on A27T A37C yielded a fraction ligated of 0.818.
In the case of A27T A37T, the fraction ligated is reported as 0.808.
Variant A27T A37G has a fraction ligated of 0.846.
Variant C26T T49C has a fraction ligated of 0.122.
With C26T T49G the fraction ligated was 0.405.
A27C G50C was tested, and the fraction ligated was 0.0749.
A27C G50T gave a fraction ligated of 0.37.
A27C G50A showed a fraction ligated of 0.18.
A27C C33A showed a fraction ligated of 0.827.
A27C C33T was tested, and the fraction ligated was 0.795.
For A27C C33G, the fraction ligated was 0.815.
With A27C G55T the fraction ligated was 0.792.
With A27C G55C the fraction ligated was 0.355.
Work on A27C G55A yielded a fraction ligated of 0.805.
Variant A27C C42A has a fraction ligated of 0.818.
Work on A27C C42T yielded a fraction ligated of 0.816.
With A27C C42G the fraction ligated was 0.831.
For A27C G34T, the fraction ligated was 0.815.
For A27C G34A, the fraction ligated was 0.809.
A27C G34C gave a fraction ligated of 0.808.
With A27G T30C the fraction ligated was 0.811.
In the case of A27G T30G, the fraction ligated is reported as 0.846.
A27G T30A showed a fraction ligated of 0.839.
Work on A27C T43G yielded a fraction ligated of 0.765.
Variant A27C T43A has a fraction ligated of 0.844.
A27C T43C showed a fraction ligated of 0.78.
Variant A27C C40A has a fraction ligated of 0.817.
A27C C40T showed a fraction ligated of 0.818.
Variant A27C C40G has a fraction ligated of 0.783.
A27C T30G gave a fraction ligated of 0.825.
With A27C T30C the fraction ligated was 0.774.
A27C T30A gave a fraction ligated of 0.783.
A27G C33T gave a fraction ligated of 0.828.
For A27G C33G, the fraction ligated was 0.846.
Work on A27G C33A yielded a fraction ligated of 0.8.
With A27C T45A the fraction ligated was 0.598.
Work on A27C T45G yielded a fraction ligated of 0.116.
In the case of A27C T45C, the fraction ligated is reported as 0.335.
Variant A27G T32A has a fraction ligated of 0.795.
Variant A27G T32C has a fraction ligated of 0.77.
With A27G T32G the fraction ligated was 0.827.
A27G A41T was tested, and the fraction ligated was 0.837.
Variant A27G A41C has a fraction ligated of 0.789.
A27G A41G gave a fraction ligated of 0.791.
A27G A36C was tested, and the fraction ligated was 0.822.
In the case of A27G A36T, the fraction ligated is reported as 0.826.
Work on A27G A36G yielded a fraction ligated of 0.805.
A27G T35C showed a fraction ligated of 0.812.
In the case of A27G T35G, the fraction ligated is reported as 0.839.
With A27G T35A the fraction ligated was 0.847.
A27G G31T showed a fraction ligated of 0.791.
With A27G G31C the fraction ligated was 0.798.
A27G G31A was tested, and the fraction ligated was 0.776.
A27G T44C showed a fraction ligated of 0.81.
A27G T44G showed a fraction ligated of 0.813.
Variant A27G T44A has a fraction ligated of 0.812.
In the case of A27G G34A, the fraction ligated is reported as 0.831.
Variant A27G G34C has a fraction ligated of 0.804.
Variant A27G G34T has a fraction ligated of 0.804.
A27G T43A showed a fraction ligated of 0.829.
For A27G T43C, the fraction ligated was 0.806.
A27G T43G showed a fraction ligated of 0.796.
A27G C28G was tested, and the fraction ligated was 0.777.
For A27G C28T, the fraction ligated was 0.813.
With A27G C28A the fraction ligated was 0.805.
A27G G50C showed a fraction ligated of 0.161.
For A27G G50T, the fraction ligated was 0.596.
For A27G G50A, the fraction ligated was 0.244.
A27C G38C gave a fraction ligated of 0.792.
For A27C G38T, the fraction ligated was 0.837.
A27C G38A showed a fraction ligated of 0.807.
A27G G46C gave a fraction ligated of 0.795.
Work on A27G G46A yielded a fraction ligated of 0.83.
Variant A27G G46T has a fraction ligated of 0.796.
A27G T45A showed a fraction ligated of 0.694.
Variant A27G T45G has a fraction ligated of 0.217.
For A27G T45C, the fraction ligated was 0.357.
A27C G31T was tested, and the fraction ligated was 0.789.
Work on A27C G31A yielded a fraction ligated of 0.824.
A27C G31C showed a fraction ligated of 0.835.
For A27C A57C, the fraction ligated was 0.787.
In the case of A27C A57G, the fraction ligated is reported as 0.773.
For A27C A57T, the fraction ligated was 0.807.
For A27G A56G, the fraction ligated was 0.755.
A27G A56T was tested, and the fraction ligated was 0.769.
Work on A27G A56C yielded a fraction ligated of 0.767.
In the case of A27C T44A, the fraction ligated is reported as 0.79.
For A27C T44G, the fraction ligated was 0.798.
In the case of A27C T44C, the fraction ligated is reported as 0.788.
